Test results: the Immune Epitope Database (IEDB)

Key:
Assay in all cases: IEDB peptide-MHC binding, purified MHC/competitive/radioactivity; filed as Kd, often an IC50 or EC50 that approximates it; ≥ and ≤ were set here for values at or beyond the usual limits of such assays
[1] = target: HLA-A*33:01
[2] = target: HLA-A*31:01
[3] = target: HLA-A*03:01
[4] = target: HLA-A*68:01
[5] = target: HLA-A*11:01
[6] = source organism: Mammarenavirus juninense
[7] = source organism: Vaccinia virus WR
[8] = source organism: SARS coronavirus Tor2
[9] = source organism: Vaccinia virus Copenhagen
[10] = source organism: Lymphocytic choriomeningitis virus (strain Armstrong)
[11] = source organism: Mammarenavirus lassaense
[12] = source organism: Dengue virus 2 Peru/IQT2913/1996
[13] = source organism: Mammarenavirus tacaribeense

Sequence | Kd [1, 7] | Kd [2, 7] | Kd [3, 7] | Kd [4, 7] | Kd [5, 7] | further results
RNPYENLLYK |  |  |  |  |  | Kd [1, 6]: ≥ 35.9 µM; Kd [2, 6]: 4760 nM; Kd [3, 6]: 2470 nM; Kd [4, 6]: 12600 nM; Kd [5, 6]: 628 nM
RQILDNAAK | ≥ 77.7 µM | 1110 nM | 117 nM | ≥ 35300 nM | 144 nM | 
RQLFKPLTK |  |  |  |  |  | Kd [1, 8]: ≥ 77.7 µM; Kd [2, 8]: 2380 nM; Kd [3, 8]: 92.2 nM; Kd [4, 8]: ≥ 77700 nM; Kd [5, 8]: 662 nM
RVIWMDAYK |  |  |  |  |  | Kd [1, 9]: 4.82 µM; Kd [2, 9]: 1.05 nM; Kd [3, 9]: 4.03 nM; Kd [4, 9]: 0.827 nM; Kd [5, 9]: 0.793 nM
RVRRYQIAQY | ≥ 70 µM | 2440 nM | 20.6 nM | 6340 nM | ≥ 25500 nM | 
SCQGSDDIRK |  |  |  |  |  | Kd [1, 10]: ≥ 70 µM; Kd [2, 10]: 9930 nM; Kd [3, 10]: ≥ 70000 nM; Kd [4, 10]: ≥ 70100 nM; Kd [5, 10]: 18300 nM
SFIEDLLFNK |  |  |  |  |  | Kd [1, 8]: 0.387 µM; Kd [2, 8]: 53.5 nM; Kd [3, 8]: 7950 nM; Kd [4, 8]: 725 nM; Kd [5, 8]: 352 nM
SFIVPEFAK | 8.35 µM | 27.3 nM | ≥ 43500 nM | 1120 nM | 103 nM | 
SHLGPQFCK |  |  |  |  |  | Kd [1, 11]: ≥ 28.3 µM; Kd [2, 11]: ≥ 24200 nM; Kd [3, 11]: 699 nM; Kd [4, 11]: 6220 nM; Kd [5, 11]: 347 nM
SLTILDDNLY | 15 µM | ≥ 47000 nM | 491 nM | 5990 nM | 3070 nM | 
SLTSLLKTHR |  |  |  |  |  | Kd [1, 8]: 0.804 µM; Kd [2, 8]: 105 nM; Kd [3, 8]: 1450 nM; Kd [4, 8]: 698 nM; Kd [5, 8]: 1230 nM
SLTVLFDGR |  |  |  |  |  | Kd [1, 8]: 2.52 µM; Kd [2, 8]: 350 nM; Kd [3, 8]: 4810 nM; Kd [4, 8]: 1340 nM; Kd [5, 8]: 7530 nM
SSLRREHIK | ≥ 37.1 µM | 89.7 nM | 1070 nM | 14000 nM | 270 nM | 
SSLVKNVNK | ≥ 77.7 µM | 1250 nM | 432 nM | 4400 nM | 27.1 nM | 
SSMTIREFPR | 0.0173 µM | 0.996 nM | 9970 nM | 0.479 nM | 5.47 nM | 
STGESSILR | 4.73 µM | 1340 nM | 310 nM | 196 nM | 928 nM | 
SVFYLYLTFY |  |  |  |  |  | Kd [1, 8]: 6.01 µM; Kd [2, 8]: 2860 nM; Kd [3, 8]: 1790 nM; Kd [4, 8]: 99.4 nM; Kd [5, 8]: 196 nM
SVKYYGRSTK | 13.5 µM | 1340 nM | 97.6 nM | 822 nM | 571 nM | 
TCQGSDDIK |  |  |  |  |  | Kd [1, 11]: 2.84 µM; Kd [2, 11]: 5090 nM; Kd [3, 11]: ≥ 78000 nM; Kd [4, 11]: 7390 nM; Kd [5, 11]: 16500 nM
TFFSTFKCY |  |  |  |  |  | Kd [1, 8]: 1.15 µM; Kd [2, 8]: 797 nM; Kd [3, 8]: 5800 nM; Kd [4, 8]: 1070 nM; Kd [5, 8]: 4350 nM
TLITLILSNK | 8.5 µM | 570 nM | 1.61 nM | 3.73 nM | 3.41 nM | 
TTFITPMLR |  |  |  |  |  | Kd [1, 12]: 0.0117 µM; Kd [2, 12]: 27.1 nM; Kd [3, 12]: 13.2 nM; Kd [4, 12]: 6.76 nM; Kd [5, 12]: 84.4 nM
TVNICIFYDR | 0.0728 µM | 12.3 nM | 414 nM | 27.7 nM | 151 nM | 
VALSSLVSK | ≥ 39.8 µM | 2040 nM | 283 nM | 1070 nM | 15.1 nM | 
VALYRRIQR | 0.0128 µM | 2.27 nM | 16100 nM | 256 nM | 5240 nM | 
VCLALTNSMK |  |  |  |  |  | Kd [1, 10]: ≥ 66.8 µM; Kd [2, 10]: 4560 nM; Kd [3, 10]: 42.4 nM; Kd [4, 10]: 19300 nM; Kd [5, 10]: 634 nM
VCPLGLLLK |  |  |  |  |  | Kd [1, 13]: ≥ 77.7 µM; Kd [2, 13]: ≥ 26500 nM; Kd [3, 13]: 5830 nM; Kd [4, 13]: ≥ 77600 nM; Kd [5, 13]: 2420 nM
VISKIYTLIY | 2.24 µM | 990 nM | 101 nM | 1790 nM | 113 nM | 
VLTSEEVVLK |  |  |  |  |  | Kd [1, 8]: ≥ 70 µM; Kd [2, 8]: ≥ 70000 nM; Kd [3, 8]: 7470 nM; Kd [4, 8]: 2100 nM; Kd [5, 8]: 966 nM
VSVSDFRDY | 11.9 µM | ≥ 77900 nM | ≥ 78000 nM | ≥ 77700 nM | 10400 nM | 
